Target: chicken skeletal muscle actin (chicken) (UniProt P68139)
Assay: SEC; 20 uM chicken G-actin mixed with 2DGel at ratios 1:1, 1:2 and 2:1 in 1X KMI-Ca buffer (50 mM KCl, 10 mM imidazole, 1 mM MgCl2, 1 mM CaCl2), 30 min, Enrich SEC 650; peak fractions analysed by SDS-PAGE

stoichiometry N (actin per MKD1-2DGel)	stoichiometry N (actin per Heim2DGel)	Substance
2	–	MKD1-2DGel (two-domain gelsolin of Candidatus Prometheoarchaeum syntrophicum MK-D1) (natural protein)
–	1	Heim2DGel (two-domain gelsolin of Heimdallarchaeota LC_3) (natural protein)
